Laboratory results from patent publication US10234390.

Columns and labels:
[1] = system: T1, fluorogenic MMP peptide substrate [Dabcyl-Gaba-Pro-Gln-Gly-Leu-Glu(EDANS)-Ala-Lys-NH2]
T1 sequence: XXPQGLXAK

[2] = molecular target: T2, fluorogenic MMP peptide substrate [Dabcyl-Gaba-Pro-Gln-Gly-Leu-Glu(EDANS)-Ala-Lys-NH2] (not fully specified)
T2 chain: XXPQGLXAK

[3] = molecular target: T3, Sortase A substrate Dnp-LPETG-(K-FITC)-NH2
T3 chain: LPETGK

## MMP-9
[1]
  EDANS fluorescence intensity: The fluorescence intensity of EDANS cleaved by MMP-9 bound with MNP-MMP9Ab

B1: Recombinant human MMP-1 (R&D Systems), activated with APMA (protein)
chain: FVLTEGNPRWEQTHLTYRIENYTPDLPRADVDHAIEKAFQLWSNVTPLTFTKVSEGQADIMISFVRGDHRDNSPFDGPGGNLAHAFQPGPGIGGDAHFDEDERWTNNFREYNLHRVAAHELGHSLGLSHSTDIGALMYPSYTFSGDVQLAQDDIDGIQAIYGRSQNPVQPIGPQTPKACDSKLTFDAITTIRGEVMFFKDRFYMRTNPFYPEVELNFISVFWPQLPNGLEAAYEFADRDEVRFFKGNKYWAVQGQNVLHGYPKDIYSSFGFPRTVKHIDAALSEENTGKTYFFVANKYWRYDEYKRSMDPGYPKMIAHDFPGIGHKVDAVFMKDGFFYFFHGTRQYKFDPKTKRILTLQKANSWFNCRKN
[2]
  EDANS emission at 446.5 nm from peptide-functionalised pSiRM: emission at 446.5 nm was observed
  EDANS emission under confocal microscope (microcontact-printed peptide): The lighter colour (blue) is the colour of EDANS emission confirming the cleavage of the MMP substrate
  EDANS fluorescence intensity at different incubation times (1.2×10^-7 M MMP-1): After 5 min of incubation, a significant fluorescence emission indicating the presence of MMP-1 was already detectable ... then plateaued at 15 min incubation time
  limit of detection (EDANS fluorescence after 15 min incubation): the calculated LOD was 7.5×10^-19 M
  shift of the resonance cavity dip (IRS): A small blue shift (Δλ=0.5 nm) observed by IRS after incubation with MMP-1

B2: Sortase A enzyme (protein)
chain: QAKPQIPKDKSKVAGYIEIPDADIKEPVYPGPATPEQLNRGVSFAEENESLDDQNISIAGHTFIDRPNYQFTNLKAAKKGSMVYFKVGNETRKYKMTSIRDVKPTDVGVLDEQKGKDKQLTLITCDDYNEKTGVWEKRKIFVATEVK
[3]
  FITC fluorescence emission (1 µg/mL Sortase A, 30 min): the emission of FITC after the Sortase A substrate cleaved by Sortase A enzyme
  FITC fluorescence emission at different contact times: the longer the interaction between Sortase A enzyme and Sortase A substrate the higher emission of the FITC detected ... only until 30 min contact time
  FITC fluorescence emission, S. aureus bacterial supernatant (1 h inoculation): about 47.26 a.u.
  FITC fluorescence intensity, 1×10^-4 µg/mL Sortase A in buffer solution: 100.2±22.7 a.u.
  FITC fluorescence intensity, wound fluid spiked with 1×10^-4 µg/mL Sortase A, 30 min: about 82.34 a.u.
  FITC fluorescence signal at different Sortase A concentrations: this sensing platform still had an obvious signal down to fg/mL of Sortase A concentration
  increase of FITC fluorescence intensity on spiking the bacterial supernatant with Sortase A enzyme: increased the fluorescence intensity about 112.19 a.u.
